Reference: paper PMC6208778, “eIF2A, an initiator tRNA carrier refractory to eIF2α kinases, functions synergistically with eIF5B” (Cellular and Molecular Life Sciences: CMLS, 2018)

T1: GST-fused ΔeIF5B(587–1220) (UniProt O60841 587-1220)
T1 construct: eukaryotic initiation factor 5B (eIF5B), residues 587–1220, lacking the N-terminal region; also called GST–eIF5B; GST–eIF5B (587–1220); source: E. coli BL21, purified
T1 sequence (looked up): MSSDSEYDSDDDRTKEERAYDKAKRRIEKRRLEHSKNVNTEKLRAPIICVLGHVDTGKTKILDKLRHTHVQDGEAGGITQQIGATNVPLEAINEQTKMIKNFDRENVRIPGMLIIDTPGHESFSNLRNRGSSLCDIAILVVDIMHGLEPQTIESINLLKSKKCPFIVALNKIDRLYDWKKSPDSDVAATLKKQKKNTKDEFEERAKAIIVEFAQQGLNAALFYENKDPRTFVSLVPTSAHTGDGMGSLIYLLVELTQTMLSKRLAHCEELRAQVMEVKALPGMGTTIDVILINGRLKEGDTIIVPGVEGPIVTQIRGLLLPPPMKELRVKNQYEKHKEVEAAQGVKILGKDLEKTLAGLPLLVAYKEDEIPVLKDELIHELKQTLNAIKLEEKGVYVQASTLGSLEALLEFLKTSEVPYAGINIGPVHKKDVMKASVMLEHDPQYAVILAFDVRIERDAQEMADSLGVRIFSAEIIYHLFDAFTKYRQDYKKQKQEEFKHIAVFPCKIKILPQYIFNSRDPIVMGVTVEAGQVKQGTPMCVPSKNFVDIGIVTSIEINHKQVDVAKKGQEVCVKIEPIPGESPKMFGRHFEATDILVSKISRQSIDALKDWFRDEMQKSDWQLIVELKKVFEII

T2: His-tagged eIF5B (587–1220) (UniProt O60841 587-1220)
T2 construct: eIF5B, residues 587–1220; The methods describe only the GST-fused eIF5B; also called purified eIF5B; source: purified
T2 sequence (looked up): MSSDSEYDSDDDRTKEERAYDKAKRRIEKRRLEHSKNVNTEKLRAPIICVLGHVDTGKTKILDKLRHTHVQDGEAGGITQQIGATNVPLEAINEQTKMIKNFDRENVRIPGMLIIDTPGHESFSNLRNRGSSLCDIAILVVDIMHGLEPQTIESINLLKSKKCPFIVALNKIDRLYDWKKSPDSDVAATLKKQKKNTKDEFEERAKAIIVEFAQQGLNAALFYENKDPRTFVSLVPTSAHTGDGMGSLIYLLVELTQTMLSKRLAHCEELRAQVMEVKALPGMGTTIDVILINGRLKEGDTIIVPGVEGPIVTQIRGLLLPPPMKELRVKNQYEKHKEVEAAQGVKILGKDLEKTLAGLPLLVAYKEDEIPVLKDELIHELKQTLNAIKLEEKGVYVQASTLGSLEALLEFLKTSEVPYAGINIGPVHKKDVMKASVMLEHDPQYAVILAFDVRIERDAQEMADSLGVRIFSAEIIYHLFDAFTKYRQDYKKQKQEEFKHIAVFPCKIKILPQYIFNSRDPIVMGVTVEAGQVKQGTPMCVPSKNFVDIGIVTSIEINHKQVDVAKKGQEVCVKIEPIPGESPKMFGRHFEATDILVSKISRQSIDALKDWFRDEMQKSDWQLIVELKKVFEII


What was measured:
[1] = target: T1, GST-fused ΔeIF5B(587–1220); test: pull-down; GST pull-down with recombinant proteins purified from E. coli extracts; GST fusions as bait, His–eIF2A detected by western blotting with anti-His; conditions: both partners purified
[2] = target: T2, His-tagged eIF5B (587–1220); test: co-IP; purified His-tagged eIF5B (587–1220) and GST-fused eIF2A (462–501) mixed; the former precipitated with an anti-His-conjugated resin; western blotting with anti-GST; conditions: both partners purified

binding result [1] | binding result [2] | Binder
binds |  | His-tagged eIF2A (natural protein, human, UniProt Q9BY44 1-585, looked up, eukaryotic initiation factor 2A (eIF2A); also called His–eIF2A; eukaryotic initiation factor 2A; source: E. coli M15 (plasmid pQE31/His–eIF2A), purified) MAPSTPLLTVRGSEGLYMVNGPPHFTESTVFPRESGKNCKVCIFSKDGTLFAWGNGEKVNIISVTNKGLLHSFDLLKAVCLEFSPKNTVLATWQPYTTSKDGTAGIPNLQLYDVKTGTCLKSFIQKKMQNWCPSWSEDETLCARNVNNEVHFFENNNFNTIANKLHLQKINDFVLSPGPQPYKVAVYVPGSKGAPSFVRLYQYPNFAGPHAALANKSFFKADKVTMLWNKKATAVLVIASTDVDKTGASYYGEQTLHYIATNGESAVVQLPKNGPIYDVVWNSSSTEFCAVYGFMPAKATIFNLKCDPVFDFGTGPRNAAYYSPHGHILVLAGFGNLRGQMEVWDVKNYKLISKPVASDSTYFAWCPDGEHILTATCAPRLRVNNGYKIWHYTGSILHKYDVPSNAELWQVSWQPFLDGIFPAKTITYQAVPSEVPNEEPKVATAYRPPALRNKPITNSKLHEEEPPQNMKPQSGNDKPLSKTALKNQRKHEAKKAAKQEARSDKSPDLAPTPAPQSTPRNTVSQSISGDPEIDKKIKNLKKKLKAIEQLKEQAATGKQLEKNQLEKIQKETALLQELEDLELGI
 | binds | HEEEPPQNMKPQSGNDKPLSKTALKNQRKHEAKKAAKQEA (domain or fragment, human, UniProt Q9BY44 462-501, looked up, also called M domain; source: E. coli BL21, purified) [GST–eIF2A (462–501)]
